Results published in a protein production outcome set (Wang et al. 2014).

Assay: label from the status in PepcDB records

| Sequence | protein production |
| --- | --- |
| MRPGSVKRLYGVNTVQYAPCFMRDHRRDGIPHGNLPLELDAFVGRGAQLAELARTLDSARLVTLTGSGGVGKSRLAARAAARRAPRGGVWRVQLAPVRDEEFVDYAVVEALGLTDHTTRLPRETLLAHLAERELLLLLDGVEHLVDACAALVTELLGRAPGLTVLAVGRRPLGVAGERLVPLAPLGTEEAVELLTVRAGQRSVARDHDADPDADQREMRELCRRLDGIPLAIELAAGRLDALSPGQMLRRLDDRFRLLTGGDRTALPRHRTLRTAIGWSHELCTPPERLLWARLSVFAGPFDLEAAEYVCSGDGMPADDVLDVLCALLSQSVLTREESPAGVRYRMLDTVRAYGADWLAATGDADRLRRRHRDWYVGLATWCELEWFSPRQGEVAARVDAELPNLRSALEHCLDEPDGAHLGQYLAGALWFHWVGCGRLSEGRHWLEQAVRLDAEPTAGEQSRLKALWVLAYVAILQGDTVPALAALQECREEAERSANPTAAAYAEHRTGCLALVTDDLPRAETLLRSALHRYREIGELNSNVLMGQVELAMARAFQGDLPDAVRLCEDVRQVCEDHGERWARGYALYVLAYAAWSDGEPVRARELLADCLGSAHRFRDQLGSVLAVELLALVTVAEGDAAEAAVLQGAAGRMWPSVGLPLFGSAHYNAPHELCEAAAREQLGDERYEECVRHGARLGRREAVARALRRPGARASLPAPRPTAVRRAPAGARTAKPAASPTRKGGETAG | failed |
| MLSIMTFREFMKENGYEVKTKFWEDFSLAERFGLSAIQDTFNRAFKEWKEDYEFLTELVLVLNHKIWQYHEKRPEFAELYNTLEEQTDQYAMENLKDEELSYFFDVTDLEHHHHHH | not failed |
| GLINTHAHVGMSASKGLFDDVDLDSFLKKTFEYDSDRTSTGIFNSAKLGMYEMIGNGITAFVDLYYSEDIIAKAAEEIGIRAFLSWVTLDKELTTQIGDPVENAENFIRNHVGNKYVVPSVGVQGIYVANDDTFRRAMDLAEKYGTILHMHLSETRKEVYDAVKKLGERPIEHLHNIGILNKRVLAAHCVWATYHEVRLLSKDGVNVSWNSISNFKLGTGGIPPIPEMMRENVNVTIGTDSNGSNNSLDMFQAMKFSAISVKNYRWDASLMKAQEILDMATRNAARALQLNAG | failed |
| MSKNDKPLVSIGIPTYNRAESLKRAINSAVNQTYTNLEIIISDNCSIDETQQLCEELCKLDSRITYIRQAKNFGATNNFSFVLKKATGEYFMWLADDDWISENYIYDCQFFLQNNHQYLLCSGIAKYYLGDDIRMGENICLEENSPIERVKEYFNKVQDNGIFYGLYRKEAVLKLRIPSCFGGDWVFIACILLLGKATTLNTCVIHRVFQEKSTEDYAKEINSKYVLEKSYPYAFICFHFFSEIERTLILQNILTKQQKILLFLDILLTLMRRFGHLYSIEYGWLNIFCIRKKLISLLKIIIRNFRQSCLYFIDSLRTFIYNLKYTPQMYQLYASSKQKNSDLKKLAFFSPVKPIKSGISDYSEELIRFLCKKYQIFVFIDDSYTEKQCPNIENTFYLNHRLFPITSKILGIKKIVYQIGNNYYHNYMFKYINKNHGIVVLHDGIHMSGNVLQQPERHKIVVHSLSASTQVKSKYPNLSVNVISLLMSLPEENLKQDKNSLRHELNIDINTFVFGVFGIISEPKMVYELLLAFCHSFVQNENVAFLMVGYEIADSRVLNFLRANEDDKRLVCKLGVSMEDLYKFIKVTDACFNLRSTSRGETSSSLLRVMSCGIPVIASDIDSFSELPSDVLLKVSQNLSQDELSSILKKIYNEKDKLKEIGKKGKSYINSFHSPSKISDIYSTLIEIE | failed |
| MHVDIELPLGRATALQRLRAQGFCVLTPAALETLTGMPLDAFDMMLPYWEELAPDLHLKDGGHYRYRRHGCFMQTLQPGQLETVQHRAHWQPTTYNALHGGMERWFEPLSNEMIHLPSWSALLVALGELFAKLRAPQGGRWYIEAHPFRIDTEGGVGRPTPEGAHRDGVDFVAVVFIGRQGVRGGETRVFDAAGPQGVRFTLEQPWTVLLLDDQQVIHESTPLLPLDPADPAVPAHRDTLVLTYRSGGFQAPA | not failed |
| MAALGLGTYGAHVFKPENPSYKQVWQTASLYHLVHTAALVSAPSTKYPNIFGGLLTAGIVAFSGTCYMVALREDRKFSTLAPFGGFAFIAAWATLLF | failed |
| MFLRGNPDKTEPAFDARPLKTKEIARFGEGTPLPWLDRHALACVDASGDLRDVLKSTALAITLFCACTGPAMAYAPDETPIVIGRSTLLESKVLGQLRRINVHTPADYATSGKTYPVLFLLDGGEREDFPHIAGLAQLGELSWTYREMIVVGIEGIDRRHDLTHPSTVAQEQADFPTLGGSAAYRRFLSEELKPWVAARYRTNGESAIMGESLAGLFVIETLLKQPTLFDAYIAASPSLWWSDQALARGAPADIARWPALGSRKLYLTIGDEGSTMQEGVDKVMAAIGAAKPAGLTLVYDPMPHEQHSTIYHPAALKAFRTVWPGPRPD | failed |
| EMVDDQAMNEQLYYYFDPGDFKPPLVVYFSGFRLALGVEGANMMRALEAPALIFGEQRILGGSFYVGSKKFEQEIVRIIQTTLKKLGFTANQLVLSGLSMGTYASLYY | failed |
| MPSEKEILDALSKVYSEQVIQADDYFRQAIFELASQLEKEGMSSLLATKIDSLINQYILTHQFDAPKSIFDLSRLVKTKASHYKGTAISAIMLGSFLSGGPK | not failed |
| MTRASLDKQPHEVASMFDDVAERYDLTNDLLSLGQDRVWRREVAKAVDARPAQKILDLAAGTATSSLPFARAGAYVVPCDFSLGMLRVGKKNHPWLPLTAGDATKLPFKDDTFDAVTISFGLRNVQDTDTALSELYRVTKPGGRVVICEFSHPTWAPFRTVYTEYLMRALPPVARAVSSNPDAYVYLAESIRAWPTQPELAERLRKAGWSKVAWRNLTGGVVALHRGFKAV | failed |
| MIMKISMAMCKQPLPPSPTLDFPPARFGPNMLTLNPYGPKDKVVVIMGATGTGKSRLSVDIATRFRAEIINSDKIQVHQGLDIVTNKITSEESCGVPHHLLGVLPPEADLTAANYCHMANLSIESVLNRGKLPIIVGGSNSYVEALVDDKENKFRSRYDCCFLWVDVALPVLHGFVSERVDKMVESGMVEEVREFFDFSNSDYSRGIKKAIGFPEFDRFFRNEQFLNVEDREELLSKVLEEIKRNTFELACRQREKIERLRKVKKWSIQRVDATPVFTKRRSKMDANVAWERLVAGPSTDTVSRFLLDIASRRPLVEASTAVAAAMERELSRCLVA | failed |
| MGNNNSTKESTHDNHSDSSTHEEMDHSGSADVPEGLQESKNPKYKVGSQVIINTSHMKGMKGAEATVTGAYDTTAYVVSYTPTNGGQRVDHHKWVIQEEIKDAGDKTLQPGDQVILEASHMKGMKGATAEIDSAEKTTVYMVDYTSTTSGEKVKNHKWVTEDELSAKLEHHHHHH | not failed |
| MLKLTPLLLAIAYGFLMYQFSVWRTKRMLDAQSRPLDEPEILALARRMAAALDLPTVKVSVFEVDPVNGLAAPDGRIFLTRGFLKKYRAGEVTAEELASVIAHELGHVALGHSRRRMIDFTGQNAVLMMLGAVLNRFVPFAGIWIARLLTSALSARLSRRDEHEADAYASALLVKAGIGTEPQKSLFRKLHRWSGMNSSAVPAWLMSHPVTDERIRRIEEREARWIEGLEHHHHHH | failed |
| MIGLSKSRGALSMENQKMPEYETIRAAVAGEKWAVEKVVECYKDEIDRLSTVAVRQPDGSTKQEINEDMRQSITKKLIEALPQFPLEEMEKGNVRLEHHHHHH | not failed |
| MVVSLCSPGKCRKGTIVSRASLRANEGRRIERSTIAPSDLPPFRSRVSQPELPVERADHDADSVADGGWQATLCALEALAGGVDEAAGTGDGRRLLWALTLDADGVVGTIEPLEQTHGARGWSKPRPVPLARVAEDDTLPQWDVRVARAIRRDASRNRRHVLDRAAAVVALVGHPAVVLSHAPTVPMEVVESAPSLEAVREGDRYVLRIVPPLREALAMEDFLPAAARQEAESLRQITVLQDGPRRLRVVRFTPAQQGAAKLIAGGLSVPADAQARLDSTLRALAGHFQIHADSSGEARERDPESRLRAEVAPVGRGISLRLVVTPLGVLGPRLAPGHGRAQLMATIGGETHVTYRDLDAEHAHVAEVFEALPFLVQQAPAGGEHTWTLDDPEDALTAIEVLPGLAGVIDLEWPRGRELRVLPADIAQLAVSVETGSEWFKLVGELRVAEGLVISLEKLVAWAHGHAGRFMPMAHGVYVALTRQLRDRLRDLAGVGDGVRDGIRVPLVAAPWLDDVLAGAGIDPDAHFRTRVKQLRAARGHDAPVPPTLVAELRPYQLEGFRWMMSLAEAGFGACLADDMGLGKTLQSLAVLLARAAGGPALVVAPTSVCGNWATEARRFAPALRVHVYADGDREAIVGQAAAHDLVIVSYNLLQQARKAFCDRHWHTVVADEAQSFKNPSSRRAQAMFALPADCRIALSGTPVENRLAELWAVMRFCVPGLLGSLARFNEHFANPIERSGARDPRQRLRRMIAPFVLRRTKAQVLDELPPRTELVIRVTPEPTEAAHYEALRRQALSEAERALLRPRKDKKAPAAMTEPEARIHVLAQLMRMRRAACDPRLVTPDVGQPGAKVRAFAELAATLAANGHKTLVFSQFVDFLQMLRQALVDAGLAWQYLDGATPAGERTRRVAAFQAGEGDVFLISLKAGGFGLNLTAADYIVIADPWWNPAAEDQAMGRAHRIGQQRPVTVYRLIAAGTIEERIVDLHQGKRALADGVLDAMDGEAIGRDVPLPDVDELVGLLRR | failed |
| MEVSSFSTVPRYCNSRSFVPELSRFRGFKVHLWDQSLVPLHFSIRKRKNTPRYLISCSQKKDVTVVDGSCMDEIYDKLAERLVPTAAAMFSPNLKRLVGLAGPPGAGKSTVANEVVRRVNKLWPQKAASFDAEVNPPDVAIVLPMDGFHLYRSQLDAMEDPKEAHARRGAPWTFDPALLLNCLKKLKNEGSVYVPSFDHGVGDPVEDDIFVSLQHKVVIVEGNYILLEEGSWKDISDMFDEKWFIDVNLDTAMQRVENRHISTGKPPDVAKWRVDYNDRPNAELIIKSKTNADLLIRSMNI | failed |
| MKRERSDFEESLKNIDIAKCLMILAQTSMVKQIGLNQHTESHTSNQFECKTCNKRFSSFQALGGHRASHKKPKLTVEQKDVKHLSNDYKGNHFHKCSICSQSFGTGQALGGHMRRHRSSMTVEPSFISPMIPSMPVLKRCGSSKRILSLDLNLTPLENDLEYIFGKTFVPKIDMKFVL | failed |
| MTSPASCSPPNEKRTGSPFPPESRSLPSTMEMTMNTIFRPAPHPLPDAPFYTPLGNECVLFESAWVRQLPLLLKGPTGCGKTRFVSHMAAKLGLPLSTISCHDDLAAADLTGRYLLKGGETVWMDGPLTRSVRQGGICYLDEIVEARKDVAVVLHPLTDDRRILPLERTGEVLEAPSGFMLVVSYNPGYQNLLKSLKPSTRQRFVAIEFDFLPKEQEIAVVSHESGLDARDVEPLVDLAHRLRGLKGHDLEEGVSTRLLVYCASLIDTGLPARQAVRATMIEPLTDEPDVKAALHEVADAIIRLEHHHHHH | failed |
| MNIQQLEYIAALDKFRHFAKAADYCNVSQPTLSTMILKLEEELGAKLFDRSRQPIEPTSIGALVVSQAKQILYDLNSITRIIEEEQ | failed |
| MKIESAQIIELPKILDKRGNLSIIEEFKNIPFKIERTYWIYDVPGGESRGGHAYRENEEFIVALSGSFDVVLDDGNNKKIFSLNRSYYGLYVPKGLWREMNNFSTNSLALILSSTVYEEKDYIRDYNEFLKMKRKLEHHHHHH | failed |
| MLLSYVYKLNPSLKQAETMERWLHLLRLQYNFRVRERTEAYEQAKAPVMGNYCILQTQAECCPLTCSVSKGALYGNPWSTKGKKRSPLAQQDANLVDLKKERPWYGEICYHVLQQMLKQVDTAFVRFFKGLGKYPKTKRRGKLRSFTYPTGDVGFKGNKVRLPGLGWMRFFQSRPFPLGFKIRSTTVRKKANGFYISVLLQDDTVPQASASQQIQTALGVDLGIKKLISLSTGETIANPRFYKQMERKRSRLNWAANRKVLGSRRRQKAYQQIAQLEQKVTNQREDYQWKIAHNLVKRFDLIVFENLNVQGMMARCKPKQDESGKYLRNGQSAKSGLNKAIADAAWGSLKLKVKILSERAGVLVHEVKPNFSSQECSECGYISPTNRDKEKFLCEHCGHHADADIDAAKVILKRGLSELGINLDAVSGVPRKQDKSTSKEPVARQGISTALAVEPGNPHQVEERLSN | failed |
